The values below come from paper PMC9289529, “Varicella‐Zoster virus ORF9 is an antagonist of the DNA sensor cGAS”.

Data set [1] has as its target T1, ORF9 (FLAG-ORF9) (Varicella-zoster virus, UniProt Q4JQW6 1-302).
T1 sequence: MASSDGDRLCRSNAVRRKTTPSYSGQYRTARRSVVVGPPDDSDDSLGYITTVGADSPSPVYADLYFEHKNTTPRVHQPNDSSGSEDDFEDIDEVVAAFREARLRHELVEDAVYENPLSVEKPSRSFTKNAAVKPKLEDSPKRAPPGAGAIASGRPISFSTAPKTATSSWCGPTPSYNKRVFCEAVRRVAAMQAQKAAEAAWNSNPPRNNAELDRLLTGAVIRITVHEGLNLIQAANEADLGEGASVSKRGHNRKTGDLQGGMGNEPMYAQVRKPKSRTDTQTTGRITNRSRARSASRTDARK
The data set can be described thus: pull-down. Particulars: protein: recombinant; tags: N-terminal FLAG (GST cleaved by PreScission); label: biotin; blunt.

The target of data set [2] is cGAS (pull-down preparation) (human, UniProt Q8N884 1-522). The data set is described as follows: pull-down; Binding buffers for pull-down, EMSA and phase separation not in the material; phase separation tested at varied NaCl/KCl up to 300 mM or more. Conditions: protein: recombinant; tags: GST cleaved by PreScission; label: biotin; blunt.
Chain of cGAS (pull-down preparation) (Q8N884 whole entry): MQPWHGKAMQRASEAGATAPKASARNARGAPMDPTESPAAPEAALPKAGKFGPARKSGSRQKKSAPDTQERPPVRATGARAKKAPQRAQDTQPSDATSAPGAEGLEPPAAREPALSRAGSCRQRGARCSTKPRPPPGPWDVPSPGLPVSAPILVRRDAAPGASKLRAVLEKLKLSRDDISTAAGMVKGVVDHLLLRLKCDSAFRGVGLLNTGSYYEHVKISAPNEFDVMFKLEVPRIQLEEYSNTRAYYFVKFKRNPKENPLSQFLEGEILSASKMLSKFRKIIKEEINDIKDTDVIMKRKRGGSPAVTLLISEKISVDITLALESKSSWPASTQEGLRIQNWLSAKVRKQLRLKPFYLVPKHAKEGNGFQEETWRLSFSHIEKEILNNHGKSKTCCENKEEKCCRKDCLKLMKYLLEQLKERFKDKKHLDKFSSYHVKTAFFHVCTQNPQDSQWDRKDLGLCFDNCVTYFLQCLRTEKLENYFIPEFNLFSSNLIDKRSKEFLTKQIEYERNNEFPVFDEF
The target of data set [3] is T2, hcGAS (human, UniProt Q8N884 1-522). The data set is described as follows: EMSA (agarose); high-molecular-weight complexes; Binding buffers for pull-down, EMSA and phase separation not in the material; phase separation tested at varied NaCl/KCl up to 300 mM or more. Particulars: protein: recombinant; tags: 6xHis-SUMO2 construct (pET); blunt. On the technique in general: Mobility shift assays separate free from complexed probe on a gel.
T2 sequence (Q8N884 whole entry): as above

Data set [4] deals with T3, ORF9 (EMSA preparation) (Varicella-zoster virus, UniProt Q4JQW6 1-302).
T3 sequence: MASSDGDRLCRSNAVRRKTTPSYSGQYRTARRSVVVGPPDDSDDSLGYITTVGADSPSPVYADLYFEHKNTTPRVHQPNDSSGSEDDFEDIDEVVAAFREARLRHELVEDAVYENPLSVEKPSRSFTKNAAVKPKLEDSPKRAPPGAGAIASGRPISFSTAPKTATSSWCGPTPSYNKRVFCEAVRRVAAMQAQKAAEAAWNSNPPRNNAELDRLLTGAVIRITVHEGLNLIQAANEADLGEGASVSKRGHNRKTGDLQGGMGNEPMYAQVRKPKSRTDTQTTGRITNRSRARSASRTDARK
The data set can be described thus: EMSA (agarose); Binding buffers for pull-down, EMSA and phase separation not in the material; phase separation tested at varied NaCl/KCl up to 300 mM or more. Conditions: protein: recombinant; tags: N-terminal FLAG (pET28a, Ni-NTA purified); blunt.

For data set [5], the target named is hcGAS;ORF9 (EMSA preparation) (human;Varicella-zoster virus, UniProt Q8N884;Q4JQW6 1-522;1-302, |). The data set is described as follows: EMSA (agarose); increasing ORF9 enlarges cGAS-DNA complexes; Binding buffers for pull-down, EMSA and phase separation not in the material; phase separation tested at varied NaCl/KCl up to 300 mM or more. Conditions: protein: recombinant;recombinant; tags: 6xHis-SUMO2 construct (pET);N-terminal FLAG (pET28a, Ni-NTA purified); blunt.
Chain of hcGAS;ORF9 (EMSA preparation) (Q8N884 whole entry, one chain of several): as the sequence (Q8N884 whole entry) above

For data set [6], the target named is T4, ORF9 (phase separation preparation) (Varicella-zoster virus, UniProt Q4JQW6 1-302).
T4 sequence: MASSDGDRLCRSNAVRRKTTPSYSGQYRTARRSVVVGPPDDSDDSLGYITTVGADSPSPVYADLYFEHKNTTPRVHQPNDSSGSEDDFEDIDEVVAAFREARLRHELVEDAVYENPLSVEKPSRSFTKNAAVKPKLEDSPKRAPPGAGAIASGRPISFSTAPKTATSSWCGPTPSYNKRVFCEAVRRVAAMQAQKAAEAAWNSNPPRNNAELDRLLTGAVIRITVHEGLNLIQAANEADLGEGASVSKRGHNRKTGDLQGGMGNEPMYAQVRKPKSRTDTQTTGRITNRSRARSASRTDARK
The data set can be described thus: phase separation microscopy; no cGAS; smaller droplets than cGAS-DNA; Binding buffers for pull-down, EMSA and phase separation not in the material; phase separation tested at varied NaCl/KCl up to 300 mM or more. Particulars: protein: recombinant; tags: 6xHis-SUMO2 removed by SENP2; blunt.

Data set [7] addresses hcGAS;ORF9 (phase separation preparation) (human;Varicella-zoster virus, UniProt Q8N884;Q4JQW6 1-522;1-302, |). The data set can be described thus: phase separation microscopy; 3-fold molar excess ORF9; larger droplets, also formed at 300 mM NaCl/KCl; Binding buffers for pull-down, EMSA and phase separation not in the material; phase separation tested at varied NaCl/KCl up to 300 mM or more. Particulars: protein: recombinant;recombinant; tags: 6xHis-SUMO2 construct (pET);6xHis-SUMO2 removed by SENP2; blunt.

Data set [8] concerns the target T2, hcGAS. The data set can be described thus: phase separation microscopy; droplets sensitive to salt >250 mM; none at 300 mM NaCl/KCl; Binding buffers for pull-down, EMSA and phase separation not in the material; phase separation tested at varied NaCl/KCl up to 300 mM or more. Particulars: protein: recombinant; tags: 6xHis-SUMO2 construct (pET); blunt.

Chain of hcGAS;ORF9 (phase separation preparation) (Q8N884 whole entry, one chain of several): as the sequence (Q8N884 whole entry) above

B1: VACV-70mer-Biotin (dsDNA)
DNA 1: CCATCAGAAAGAGGTTTAATATTTTTGTGAGACCATCGAAGAGAGAAAGAGATAAAACTTTTTTACGACT
DNA 2: AGTCGTAAAAAAGTTTTATCTCTTTCTCTCTTCGATGGTCTCACAAAAATATTAAACCTCTTTCTGATGG
modifications: 3' TEG-biotin on forward strand
With B1, the binding result in data set [1] and in data set [2] was “binds” in each case.

B2: VACV70mer dsDNA (dsDNA)
DNA 1: CCATCAGAAAGAGGTTTAATATTTTTGTGAGACCATCGAAGAGAGAAAGAGATAAAACTTTTTTACGACT
DNA 2: AGTCGTAAAAAAGTTTTATCTCTTTCTCTCTTCGATGGTCTCACAAAAATATTAAACCTCTTTCTGATGG
Turning to B2, the binding result in data set [3], in data set [4] and in data set [5] was “binds” in each case.

B3: 100 bp ISD (dsDNA)
DNA 1: ACATCTAGTACATGTCTAGTCAGTATCTAGTGATTATCTAGACATACATCTAGTACATGTCTAGTCAGTATCTAGTGATTATCTAGACATGGACTCATCC
DNA 2: GGATGAGTCCATGTCTAGATAATCACTAGATACTGACTAGACATGTACTAGATGTATGTCTAGATAATCACTAGATACTGACTAGACATGTACTAGATGT
Regarding B3, the binding result in data set [6], in data set [7] and in data set [8] was “binds” in each case.
